Data from publication PMC12766925, “Functional assembly of the Qc-SNARE with Sec18 and Sec17 on membranes” (Molecular Biology of the Cell, 2025).

How the values were obtained:
His6-Sec18 = molecular target: T1, His6-Sec18 (yeast (Saccharomyces Genome Database …, UniProt P18759 1-758)); assay: liposome floatation (density gradient) with immunoblot; protein-free VML liposomes, 1 mM Mg:ATPyS, where indicated 1 µM Sec17, 250 nM Sec18, 2 µM Qc; Rb150, 27°C 1 h; floated through Histodenz; bound proteins by Western blot; conditions: both partners purified
T1 construct: Sec18, yeast, YBR080C; construct from Haas and Wickner, 1996; also called Sec18/NSF; source: E. coli XL1 Blue/pQE9-His6-Sec18, purified (Ni-NTA, Superdex 200)
T1 sequence (looked up): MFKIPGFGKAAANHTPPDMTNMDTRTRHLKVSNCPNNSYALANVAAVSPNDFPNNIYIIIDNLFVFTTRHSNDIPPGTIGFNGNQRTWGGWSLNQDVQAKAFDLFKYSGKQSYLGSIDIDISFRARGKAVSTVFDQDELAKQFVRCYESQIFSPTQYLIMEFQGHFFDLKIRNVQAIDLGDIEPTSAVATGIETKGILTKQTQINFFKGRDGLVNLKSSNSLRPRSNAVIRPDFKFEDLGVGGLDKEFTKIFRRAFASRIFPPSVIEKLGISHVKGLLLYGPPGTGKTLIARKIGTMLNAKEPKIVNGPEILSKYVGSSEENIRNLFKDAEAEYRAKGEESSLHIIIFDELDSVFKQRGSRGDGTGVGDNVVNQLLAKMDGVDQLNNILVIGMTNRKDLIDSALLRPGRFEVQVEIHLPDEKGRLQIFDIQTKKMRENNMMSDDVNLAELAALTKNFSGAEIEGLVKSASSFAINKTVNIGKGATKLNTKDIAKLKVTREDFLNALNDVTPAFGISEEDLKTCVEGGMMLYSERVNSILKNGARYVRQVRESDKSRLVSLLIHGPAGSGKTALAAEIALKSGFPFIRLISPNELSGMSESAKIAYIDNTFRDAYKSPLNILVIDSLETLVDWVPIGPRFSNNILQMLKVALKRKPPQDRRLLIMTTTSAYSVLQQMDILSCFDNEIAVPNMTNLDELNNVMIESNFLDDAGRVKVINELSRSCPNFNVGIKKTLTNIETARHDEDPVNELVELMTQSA

[1] = molecular target: T2, complex of RQaQb on proteoliposomes (yeast (Saccharomyces Genome Database …, UniProt Q12255 1-253; Q12241 1-283; Q04338 1-217); assay: liposome floatation (density gradient) with immunoblot; VML proteoliposomes with no SNAREs, single or several anchored SNAREs (1:2000 to lipid), 0.5 mM lipid, 1 µM added Sec17, Rb150, 0.04% defatted BSA, 1 mM MgCl2, 27°C 1 h; floated through Histodenz; bound Sec17 by Western blot; conditions: both partners purified
T2 construct: Nyv1 (R SNARE), yeast, YLR093C; as m5; Vam3 (Qa SNARE), yeast, YOR106W; as m6; Vti1 (Qb SNARE), yeast, YMR197C; as m7; also called R, Qa, and Qb; source: purified SNAREs (Mima et al., 2008) reconstituted together into VML proteoliposomes; copies: + +
T2 sequence (Q12255 whole entry, chain 1 of 3): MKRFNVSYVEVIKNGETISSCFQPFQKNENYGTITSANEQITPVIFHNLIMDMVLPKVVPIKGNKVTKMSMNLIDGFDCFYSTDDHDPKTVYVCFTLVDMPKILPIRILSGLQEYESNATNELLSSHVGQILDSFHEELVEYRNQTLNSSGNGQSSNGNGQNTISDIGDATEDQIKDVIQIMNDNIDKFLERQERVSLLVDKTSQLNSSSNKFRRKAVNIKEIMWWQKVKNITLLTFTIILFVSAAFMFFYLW
T2 sequence (Q12241 whole entry, chain 2 of 3): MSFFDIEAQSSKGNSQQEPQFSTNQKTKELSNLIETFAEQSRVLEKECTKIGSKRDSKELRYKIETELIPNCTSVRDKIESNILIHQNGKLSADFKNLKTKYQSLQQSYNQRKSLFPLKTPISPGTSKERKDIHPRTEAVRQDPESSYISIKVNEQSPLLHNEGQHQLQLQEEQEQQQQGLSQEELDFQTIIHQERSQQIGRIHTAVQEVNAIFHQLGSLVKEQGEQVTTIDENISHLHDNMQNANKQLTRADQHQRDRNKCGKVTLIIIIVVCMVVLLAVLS
T2 sequence (Q04338 whole entry, chain 3 of 3): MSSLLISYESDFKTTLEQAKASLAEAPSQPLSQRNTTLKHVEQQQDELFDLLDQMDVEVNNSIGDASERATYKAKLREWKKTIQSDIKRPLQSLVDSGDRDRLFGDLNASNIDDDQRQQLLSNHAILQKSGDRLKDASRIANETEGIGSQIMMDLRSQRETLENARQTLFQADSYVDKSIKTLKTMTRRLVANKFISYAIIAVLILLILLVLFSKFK

binding result (His6-Sec18): binds
binding result [1]: binds
B1: Sec17 (natural protein, UniProt P32602 1-292, looked up)
chain: MSDPVELLKRAEKKGVPSSGFMKLFSGSDSYKFEEAADLCVQAATIYRLRKELNLAGDSFLKAADYQKKAGNEDEAGNTYVEAYKCFKSGGNSVNAVDSLENAIQIFTHRGQFRRGANFKFELGEILENDLHDYAKAIDCYELAGEWYAQDQSVALSNKCFIKCADLKALDGQYIEASDIYSKLIKSSMGNRLSQWSLKDYFLKKGLCQLAATDAVAAARTLQEGQSEDPNFADSRESNFLKSLIDAVNEGDSEQLSEHCKEFDNFMRLDKWKITILNKIKESIQQQEDDLL
notes: Sec17, yeast, YBL050W; Plasmid from Schwartz and Merz, 2009; also called Sec17/SNAP; wild-type Sec17; source: E. coli Rosetta2(DE3), purified (chitin resin, DTT cleavage, dialysed into Rb150)
